Laboratory results reported in patent US12252531B2, “Methods of screening for high-affinity, isoform-selective TGFβ1 inhibitors” (Scholar Rock, Inc., priority 2018, dated 2025).
Positions count from the first letter of the chain named. Blank lines part the entries; values can stand above or below the molecule they belong to.

What was measured:
[1] = in vivo, cited from earlier work
[2] = biological target: Matrix-associated proTGFb1 (hLTBP1, hLTBP3); test: BLI (OCTET), average over matrix-associated complexes; assay type: binding, human; conditions: average KD of (B) and (C), read-out: (D) ECM AVRG
Description: (§1) Column (A) of the table lists monoclonal antibodies with discrete amino acid sequences. […] Columns (B), (D), (E) and (F) provide affinities of each of the listed antibodies, measured in KD. […] Average KD values of (B) and (C) are shown in the corresponding column (D), which collectively represents affinities of the antibodies to ECM- or matrix-associated proTGFβ1 complexes. Similarly, Average KD values of (E) and (F) are shown in the corresponding column (G), which collectively represents affinities of the antibodies to cell-surface or cell-associated proTGFβ1 complexes. Finally, relative ratios between the average KD values from columns (D) and (G) are expressed as “fold bias” in column (H). Thus, the greater the number of column (H) is, the greater bias exists for the particular antibody, when comparing binding preferences of the antibody for matrix-associated complexes and cell-surface complexes. This is one way of quantitatively representing and comparing inherent bias of antibodies to their target complexes. Such analyses may be useful in guiding the selection process for a candidate antibody for particular therapeutic use.
(§2) The concept of “uniformity” or lack of bias is further illustrated in Table 8. Average KD values between the two matrix-associated and cell-associated complexes are calculated, respectively (see columns (D) and (G)). These average KD values can then be used to ask whether bias in binding activities exists between complexes associated with matrix vs. complexes associated with cell surface (e.g., immune cells). Bias may be expressed as “fold-difference”in the average KD values, as illustrated in Table 8.

[3] = system: LTBP1-proTGFβ1, LTBP3-proTGFβ1, GARP-proTGFβ1 and LRRC33-proTGFβ1 complexes; test: BLI (OCTET), binding profile and bias across the four complexes; parameters: species or system human; conditions: ratio of average KD cell-associated / matrix-associated
Description: as §1, §2

[4] = system: Cell-associated proTGFb1 (hGARP, hLRRC33); test: BLI (OCTET), average over cell-associated complexes; assay type: binding, human; conditions: average KD of (E) and (F), read-out: (G) Cell AVRG
Description: as §1, §2

[5] = system: Cell-associated proTGFβ1 (hGARP, hLRRC33); test: MSD-SET, average over cell-associated complexes; assay type: binding, human; conditions: average of (E) and (F), read-out: (G) Cell AVRG
Description: as §1
(§3) Solution equilibrium titration (“SET”) is an assay whereby binding between two molecules (such as an antigen and an antibody that binds the antigen) can be measured at equilibrium in a solution. For example, Meso-Scale Discovery (“MSD”)-based SET, or MSD-SET, is a useful mode of determining dissociation constants for particularly high-affinity protein-protein interactions at equilibrium (see, for example: Ducata et al. (2015) J Biomolecular Screening 20(10): 1256-1267). The SET-based assays are particularly useful for determining KD values of antibodies with sub-nanomolar (e.g., picomolar) affinities.

[6] = system: hLTBP1-proTGFβ1, hLTBP3-proTGFβ1, hGARP-proTGFβ1 and hLRRC33-proTGFβ1; test: MSD-SET, binding profile and bias across the four human LLCs; conditions: ratio of average KD cell-associated / matrix-associated
Description: Solution Equilibrium Titration (SET): The SET is an assay whereby binding between two molecules (such as an antigen and an antibody that binds the antigen) can be measured at equilibrium in a solution. For example, Meso-Scale Discovery (“MSD”)-based SET, or MSD-SET, is a useful mode of determining dissociation constants for particularly high-affinity protein-protein interactions at equilibrium, such as picomolar-affinity antibodies binding to their antigens (see, for example: Ducata et al. (2015) J Biomolecular Screening 20(10): 1256-1267). The SET-based assays are particularly useful for determining KD values of antibodies with sub-nanomolar (e.g., picomolar) affinities.
as §3
For solution equilibrium titration-based binding assays, protein complexes that comprise one of the presenting molecules such as those shown above may be employed as antigen (presenting molecule-TGFβ1 complex, or an LLC). Test antibodies are allowed to form antigen-antibody complex in solution. Antigen-antibody reaction mixtures are incubated to allow an equilibrium to be reached; the amount of the antigen-antibody complex present in the assay reactions can be measured by suitable means well known in the art. As compared to BLI-based assays, SET-based assays are less affected by on/off rates of the antigen-antibody complex, allowing sensitive detection of very high affinity interactions.

[7] = biological target: Matrix-associated proTGFβ1 (hLTBP1, hLTBP3); test: MSD-SET, average over matrix-associated complexes; assay type: binding, human; conditions: average of (B) and (C), read-out: (D) ECM AVRG
Description: as §1, §3

Molecule: GC1008: human analog of 1D11, pan-TGFβ antibody
Exposure: DN Cmax ([1]; human): DN Cmax~(350 ng/mL)mg
previously reported adverse events (CTCAE grade) [1]: leukocytosis (grade 3), fatigue (grade 3), hypoxia (grade 3), asystole (grade 5), leukopenia (grade 1), recurrent, transient, tender erythematous, nodular skin lesions, suppurative dermatitis, and herpes zoster

B1: Ab21: proTGFβ1 antibody; VH SEQ ID NO: 129, VL SEQ ID NO: 15 (antibody, V domains shown)
VH: EVQLVESGGGLVQPGGSLRLSCAASGFTFSSFSMDWVRQAPGKGLEWVSYISPDASTIYYADSVKGRFTISRDNAKNSLYLQMNSLRAEDTAVYYCARGVLDYGDMLDPWGQGTLVTVSS
VL: DIQMTQSPSSLSASVGDRVTITCQASQDITNYLNWYQQKPGKAPKLLIYDASNLETGVPSRFSGSGSGTDFTFTISSLQPEDIATYYCQQADNHPPWTFGGGTKVEIK
Kd [2]: 0.246 nM
(H) G/D (fold bias) [3]: 2.613 fold
Kd [4]: 0.644 nM

B3: Ab23: proTGFβ1 antibody; VH SEQ ID NO: 131, VL SEQ ID NO: 15 (antibody, V domains shown)
VH: B1 VH with D35N, D54S, S56D, S78T
VL: B1 VL
Kd [2]: 0.443 nM
(H) G/D (fold bias) [3]: 2.028 fold
Kd [4]: 0.897 nM

B4: Ab30: proTGFβ1 antibody; VH SEQ ID NO: 138, VL SEQ ID NO: 15 (antibody, V domains shown)
VH: B1 VH with V100T
VL: B1 VL
Kd [2]: 0.296 nM
Kd [5]: 0.081 nM
(H) G/D (fold bias) [3]: 2.307 fold
(H) G/D (fold bias) [6]: 2.80 fold
Kd [4]: 0.684 nM
Kd [7]: 0.029 nM

B10: Ab28: proTGFβ1 antibody; VH SEQ ID NO: 136, VL SEQ ID NO: 15 (antibody, V domains shown)
VH: B1 VH with A97V
VL: B1 VL
Kd [2]: 0.328 nM
(H) G/D (fold bias) [3]: 1.838 fold
Kd [4]: 0.603 nM

B12: Ab22: proTGFβ1 antibody; VH SEQ ID NO: 130, VL SEQ ID NO: 15 (antibody, V domains shown)
VH: B1 VH with S30G, D35N, S52H, P53S
VL: B1 VL
Kd [2]: 0.324 nM
Kd [5]: 0.114 nM
(H) G/D (fold bias) [3]: 2.147 fold
(H) G/D (fold bias) [6]: 2.71 fold
Kd [4]: 0.695 nM
Kd [7]: 0.042 nM

Continued by falling Kd [2], values first:

Kd [2]: 0.242 nM
(H) G/D (fold bias) [3]: 2.467 fold
(H) G/D (fold bias) [6]: 1.60 fold
Kd [7]: 0.032 nM
B13: Ab32: proTGFβ1 antibody; VH SEQ ID NO: 140, VL SEQ ID NO: 15 (antibody, V domains shown)
VH: B1 VH with D35N, D54S, S56D, S78T, L101W, Y103M
VL: B1 VL
Kd [5]: 0.051 nM
Kd [4]: 0.597 nM

Kd [2]: 0.222 nM
(H) G/D (fold bias) [3]: 2.421 fold
(H) G/D (fold bias) [6]: 4.35 fold
Kd [7]: 0.023 nM
B7: Ab24: proTGFβ1 antibody; VH SEQ ID NO: 132, VL SEQ ID NO: 15 (antibody, V domains shown)
VH: B1 VH with G16R, S33A, D35Y
VL: B1 VL
Kd [5]: 0.1 nM
Kd [4]: 0.537 nM

Kd [2]: 0.208 nM
(H) G/D (fold bias) [3]: 2.376 fold
(H) G/D (fold bias) [6]: 3.41 fold
Kd [7]: 0.017 nM
B5: Ab31: proTGFβ1 antibody; VH SEQ ID NO: 139, VL SEQ ID NO: 15 (antibody, V domains shown)
VH: B1 VH with S78T, G99A
VL: B1 VL
Kd [5]: 0.058 nM
Kd [4]: 0.495 nM

Kd [2]: 0.208 nM
(H) G/D (fold bias) [3]: 1.738 fold
B6: Ab27: proTGFβ1 antibody; VH SEQ ID NO: 135, VL SEQ ID NO: 15 (antibody, V domains shown)
VH: B1 VH with S31F, F32Y, S33A, D35N
VL: B1 VL
Kd [4]: 0.361 nM

Kd [2]: 0.197 nM
(H) G/D (fold bias) [3]: 2.500 fold
(H) G/D (fold bias) [6]: 2.77 fold
Kd [7]: 0.026 nM
B2: Ab26: proTGFβ1 antibody; VH SEQ ID NO: 134, VL SEQ ID NO: 15 (antibody, V domains shown)
VH: B1 VH with S78T
VL: B1 VL
Kd [5]: 0.072 nM
Kd [4]: 0.492 nM

Kd [2]: 0.184 nM
(H) G/D (fold bias) [3]: 2.431 fold
B9: Ab25: proTGFβ1 antibody; VH SEQ ID NO: 133, VL SEQ ID NO: 15 (antibody, V domains shown)
VH: B1 VH with S30G
VL: B1 VL
Kd [4]: 0.449 nM

Kd [2]: 0.155 nM
(H) G/D (fold bias) [3]: 1.965 fold
(H) G/D (fold bias) [6]: 2.00 fold
B11: Ab29: proTGFβ1 antibody; VH SEQ ID NO: 137, VL SEQ ID NO: 15 (antibody, V domains shown)
VH: B1 VH with G16R, S33A, D35N, D62G, A97V, G99A
VL: B1 VL
Kd [5]: 0.024 nM
Kd [4]: 0.304 nM

Kd [2]: 0.145 nM
(H) G/D (fold bias) [3]: 2.083 fold
(H) G/D (fold bias) [6]: 3.00 fold
Kd [7]: 0.009 nM
B8: Ab33: proTGFβ1 antibody; VH SEQ ID NO: 141, VL SEQ ID NO: 15 (antibody, V domains shown)
VH: B1 VH with D35N, D54S, S56D, S78T, R98H
VL: B1 VL
Kd [5]: 0.027 nM
Kd [4]: 0.302 nM
